What was measured:
[1] = target: the molecule itself; assay: small angle X-ray scattering (SAXS); 4–15 mg/ml, 25 mM Tris/HCl pH 7.5, 150 mM NaCl, 290 K; extrapolated to infinite dilution; mass by comparison with bovine serum albumin
[2] = target: the molecule itself; assay: crystal structure; My11–My13 at 10 mg/ml; 0.1 M MES pH 6, 0.22 M lithium sulfate, 13% PEG 8000; 3.5 Å; molecular replacement with the (My13)2 dimer module of 2R15

B1: myomesin My9–My13 (residues 1141–1666) (domain or fragment, human, UniProt P52179 1141-1666, looked up)
chain: TKEVVVNVDDDGVISLNFECDKMTPKSEFSWSKDYVSTEDSPRLEVESKGNKTKMTFKDLGMDDLGIYSCDVTDTDGIASSYLIDEEELKRLLALSHEHKFPTVPVKSELAVEILEKGQVRFWMQAEKLSGNAKVNYIFNEKEIFEGPKYKMHIDRNTGIIEMFMEKLQDEDEGTYTFQLQDGKATNHSTVVLVGDVFKKLQKEAEFQRQEWIRKQGPHFVEYLSWEVTGECNVLLKCKVANIKKETHIVWYKDEREISVDEKHDFKDGICTLLITEFSKKDAGIYEVILKDDRGKDKSRLKLVDEAFKELMMEVCKKIALSATDLKIQSTAEGIQLYSFVTYYVEDLKVNWSHNGSAIRYSDRVKTGVTGEQIWLQINEPTPNDKGKYVMELFDGKTGHQKTVDLSGQAYDEAYAEFQRLKQAAIAEKNRARVLGGLPDVVTIQEGKALNLTCNVWGDPPPEVSWLKNEKALASDDHCNLKFEAGRTAYFTINGVSTADSGKYGLVVKNKYGSETSDFTVSVFIP
notes: myomesin (MYOM1), human, Ig domains My9–My13, residues 1141–1666 of MYOM1_HUMAN; Vector pET151/D-TOPO with N-terminal His6 and TEV site; also called C-terminal myomesin filament; My9–My10–My11–My12–(My13)2–My12′–My11′–My10′–My9′; source: E. coli BL21 (DE3) CodonPlus-RP, purified (Ni-NTA, size exclusion chromatography)
B1 was tested, and the “stoichiometry N” value [1] was 2.

B2: myomesin My11–My13 (residues 1352–1666) (domain or fragment, human, UniProt P52179 1352-1666, looked up)
chain: WIRKQGPHFVEYLSWEVTGECNVLLKCKVANIKKETHIVWYKDEREISVDEKHDFKDGICTLLITEFSKKDAGIYEVILKDDRGKDKSRLKLVDEAFKELMMEVCKKIALSATDLKIQSTAEGIQLYSFVTYYVEDLKVNWSHNGSAIRYSDRVKTGVTGEQIWLQINEPTPNDKGKYVMELFDGKTGHQKTVDLSGQAYDEAYAEFQRLKQAAIAEKNRARVLGGLPDVVTIQEGKALNLTCNVWGDPPPEVSWLKNEKALASDDHCNLKFEAGRTAYFTINGVSTADSGKYGLVVKNKYGSETSDFTVSVFIP
notes: myomesin (MYOM1), human, Ig domains My11–My13, residues 1352–1666 of MYOM1_HUMAN; Vector pET151/D-TOPO with N-terminal His6 and TEV site; also called My11–My13 triplet; source: E. coli BL21 (DE3) CodonPlus-RP, purified (Ni-NTA, size exclusion chromatography)
B2: binds [2].
